{"source": "the Human Domainome abundance scans (Beltran et al. 2025)", "parents": {"B1": {"name": "Ankyrin-1, residues 1405 to 1484; numbered along this chain, P16157 (parent)", "chain": "MKMAVISEHLGLSWAELARELQFSVEDINRIRVENPNSLLEQSVALLNLWVIREGQNANMENLYTALQSIDRGEIVNMLE"}, "B2": {"name": "Cyclin-F, residues 28 to 80; numbered along this chain, P41002 (parent)", "chain": "RNLTILSLPEDVLFHILKWLSVEDILAVRAVHSQLKDLVDNHASVWACASFQE"}}, "note": "± gives the uncertainty stated by the source."}
{"variants_of": "B1", "assay": "abundance fitness (aPCA) (normalised: wild type 0, dead -1); higher = more abundant; growth selection in yeast, the domain comes from the species named", "settings": "Homo sapiens"}
{"variant": "MKMAVISEHLGLSWAELARELQFSVEDINRIRVENPNSLLEQSVALLNLWVIREGQNANMENLYTALQLIDRGEIVNMLE", "abundance fitness": "-0.161 ± 0.056"}
{"variant": "MKMAVISEHLGLSWAELARELQFSVEDINRIRVENPNSLLEQSVALLNLWVIREGQPANMENLYTALQSIDRGEIVNMLE", "abundance fitness": "-0.061 ± 0.12"}
{"variant": "MKMAVISEHLGLSWAELARELQFSVEDINFIRVENPNSLLEQSVALLNLWVIREGQNANMENLYTALQSIDRGEIVNMLE", "abundance fitness": "-0.518 ± 0.18"}
{"variant": "MKMAVISEHLGLSWAELARELQFSVEDINRIRVENPNSLLEQSVALLNLWVIREGINANMENLYTALQSIDRGEIVNMLE", "abundance fitness": "0.097 ± 0.17"}
{"variant": "MKMAVISEHLGLSWAELARELQFSVEDINRIRVENPNSLLEQSVALLNLWVIREGVNANMENLYTALQSIDRGEIVNMLE", "abundance fitness": "0.07 ± 0.065"}
{"variants_of": "B2", "assay": "abundance fitness (aPCA) (normalised: wild type 0, dead -1); higher = more abundant; growth selection in yeast, the domain comes from the species named", "settings": "Homo sapiens"}
{"variant": "RNLTIFSLPEDVLFHILKWLSVEDILAVRAVHSQLKDLVDNHASVWACASFQE", "abundance fitness": "-0.356 ± 0.16"}
{"variant": "RNLTIMSLPEDVLFHILKWLSVEDILAVRAVHSQLKDLVDNHASVWACASFQE", "abundance fitness": "-0.486 ± 0.15"}
{"variant": "RNLTIKSLPEDVLFHILKWLSVEDILAVRAVHSQLKDLVDNHASVWACASFQE", "abundance fitness": "-0.806 ± 0.18"}
{"variant": "RNLTIHSLPEDVLFHILKWLSVEDILAVRAVHSQLKDLVDNHASVWACASFQE", "abundance fitness": "-0.691 ± 0.24"}
{"variant": "RNLTIRSLPEDVLFHILKWLSVEDILAVRAVHSQLKDLVDNHASVWACASFQE", "abundance fitness": "-0.83 ± 0.099"}
{"variant": "RNLTINSLPEDVLFHILKWLSVEDILAVRAVHSQLKDLVDNHASVWACASFQE", "abundance fitness": "-0.691 ± 0.17"}
{"variant": "RNLTIQSLPEDVLFHILKWLSVEDILAVRAVHSQLKDLVDNHASVWACASFQE", "abundance fitness": "-0.427 ± 0.15"}
{"variant": "RNLTIESLPEDVLFHILKWLSVEDILAVRAVHSQLKDLVDNHASVWACASFQE", "abundance fitness": "-0.889 ± 0.24"}
{"variant": "RNLTICSLPEDVLFHILKWLSVEDILAVRAVHSQLKDLVDNHASVWACASFQE", "abundance fitness": "-0.695 ± 0.13"}
{"variant": "RNLTIPSLPEDVLFHILKWLSVEDILAVRAVHSQLKDLVDNHASVWACASFQE", "abundance fitness": "-0.674 ± 0.16"}
{"variant": "RNLTIASLPEDVLFHILKWLSVEDILAVRAVHSQLKDLVDNHASVWACASFQE", "abundance fitness": "-0.898 ± 0.15"}
{"variant": "RNLTIDSLPEDVLFHILKWLSVEDILAVRAVHSQLKDLVDNHASVWACASFQE", "abundance fitness": "-0.593 ± 0.29"}
{"variant": "RNLEILSLPEDVLFHILKWLSVEDILAVRAVHSQLKDLVDNHASVWACASFQE", "abundance fitness": "-0.605 ± 0.15"}
{"variant": "RNLCILSLPEDVLFHILKWLSVEDILAVRAVHSQLKDLVDNHASVWACASFQE", "abundance fitness": "-0.55 ± 0.17"}
{"variant": "RNLHILSLPEDVLFHILKWLSVEDILAVRAVHSQLKDLVDNHASVWACASFQE", "abundance fitness": "-0.059 ± 0.14"}
{"variant": "RNLGILSLPEDVLFHILKWLSVEDILAVRAVHSQLKDLVDNHASVWACASFQE", "abundance fitness": "-0.068 ± 0.082"}
{"variant": "RNLVILSLPEDVLFHILKWLSVEDILAVRAVHSQLKDLVDNHASVWACASFQE", "abundance fitness": "-0.997 ± 0.15"}
{"variant": "RNLNILSLPEDVLFHILKWLSVEDILAVRAVHSQLKDLVDNHASVWACASFQE", "abundance fitness": "-0.046 ± 0.14"}
{"variant": "RNLLILSLPEDVLFHILKWLSVEDILAVRAVHSQLKDLVDNHASVWACASFQE", "abundance fitness": "-0.836 ± 0.13"}
{"variant": "RNLAILSLPEDVLFHILKWLSVEDILAVRAVHSQLKDLVDNHASVWACASFQE", "abundance fitness": "-0.768 ± 0.13"}
{"variant": "RNLSILSLPEDVLFHILKWLSVEDILAVRAVHSQLKDLVDNHASVWACASFQE", "abundance fitness": "0.087 ± 0.093"}
{"variant": "RNLIILSLPEDVLFHILKWLSVEDILAVRAVHSQLKDLVDNHASVWACASFQE", "abundance fitness": "-0.866 ± 0.23"}
{"variant": "RNLMILSLPEDVLFHILKWLSVEDILAVRAVHSQLKDLVDNHASVWACASFQE", "abundance fitness": "-0.695 ± 0.17"}
{"variant": "RNLYILSLPEDVLFHILKWLSVEDILAVRAVHSQLKDLVDNHASVWACASFQE", "abundance fitness": "-0.85 ± 0.29"}
{"variant": "RNLDILSLPEDVLFHILKWLSVEDILAVRAVHSQLKDLVDNHASVWACASFQE", "abundance fitness": "-0.076 ± 0.11"}
{"variant": "RNLRILSLPEDVLFHILKWLSVEDILAVRAVHSQLKDLVDNHASVWACASFQE", "abundance fitness": "-0.735 ± 0.1"}
{"variant": "RNLWILSLPEDVLFHILKWLSVEDILAVRAVHSQLKDLVDNHASVWACASFQE", "abundance fitness": "-0.65 ± 0.14"}
{"variant": "RNLQILSLPEDVLFHILKWLSVEDILAVRAVHSQLKDLVDNHASVWACASFQE", "abundance fitness": "-0.481 ± 0.15"}
{"variant": "RNLKILSLPEDVLFHILKWLSVEDILAVRAVHSQLKDLVDNHASVWACASFQE", "abundance fitness": "-0.611 ± 0.22"}
{"variant": "VNLTILSLPEDVLFHILKWLSVEDILAVRAVHSQLKDLVDNHASVWACASFQE", "abundance fitness": "-0.465 ± 0.2"}
{"variant": "MNLTILSLPEDVLFHILKWLSVEDILAVRAVHSQLKDLVDNHASVWACASFQE", "abundance fitness": "-0.359 ± 0.31"}
{"variant": "CNLTILSLPEDVLFHILKWLSVEDILAVRAVHSQLKDLVDNHASVWACASFQE", "abundance fitness": "-0.246 ± 0.16"}
{"variant": "NNLTILSLPEDVLFHILKWLSVEDILAVRAVHSQLKDLVDNHASVWACASFQE", "abundance fitness": "0.134 ± 0.27"}
{"variant": "TNLTILSLPEDVLFHILKWLSVEDILAVRAVHSQLKDLVDNHASVWACASFQE", "abundance fitness": "-0.058 ± 0.13"}
{"variant": "LNLTILSLPEDVLFHILKWLSVEDILAVRAVHSQLKDLVDNHASVWACASFQE", "abundance fitness": "-0.305 ± 0.44"}
{"variant": "WNLTILSLPEDVLFHILKWLSVEDILAVRAVHSQLKDLVDNHASVWACASFQE", "abundance fitness": "-0.914 ± 0.28"}
{"variant": "ANLTILSLPEDVLFHILKWLSVEDILAVRAVHSQLKDLVDNHASVWACASFQE", "abundance fitness": "-1.04 ± 0.42"}
{"variant": "SNLTILSLPEDVLFHILKWLSVEDILAVRAVHSQLKDLVDNHASVWACASFQE", "abundance fitness": "0.016 ± 0.15"}
{"variant": "GNLTILSLPEDVLFHILKWLSVEDILAVRAVHSQLKDLVDNHASVWACASFQE", "abundance fitness": "-0.193 ± 0.12"}
{"variant": "INLTILSLPEDVLFHILKWLSVEDILAVRAVHSQLKDLVDNHASVWACASFQE", "abundance fitness": "0.032 ± 0.34"}
{"variant": "KNLTILSLPEDVLFHILKWLSVEDILAVRAVHSQLKDLVDNHASVWACASFQE", "abundance fitness": "0.091 ± 0.42"}
{"variant": "RNCTILSLPEDVLFHILKWLSVEDILAVRAVHSQLKDLVDNHASVWACASFQE", "abundance fitness": "-0.316 ± 0.094"}
{"variant": "RNMTILSLPEDVLFHILKWLSVEDILAVRAVHSQLKDLVDNHASVWACASFQE", "abundance fitness": "-0.276 ± 0.13"}
